In assay [1] the target is His-tagged α subunit of acetyl-CoA carboxylase (AccA), biotinylated (Streptomyces hygroscopicus var. ascomyceticus FS35).
Assay [2] shares this target. The source holds these as a separate data set.

B1: GlnB protein (PII signal transduction protein encoded by gene 1_2537), native (untagged) (natural protein)
chain: MSIKAEYIWIDGTQPTAKLRSKTKILSDGSRLPRWGFDGSSTNQAEGHASDLVLEPVFSCPDPIRGGDHLLVLCEVLHTDLTPHPSNTRALLRPVAERFAGQEPIFGIEQEYTFLKGDRPLGFPEGGGYPAPQADYYCGVGADAIFGREIVEKHLDLCLAAGLGLSGINAEVMPGQWEFQVGALPPLEVSDHMWVARWLLHRVAEEFGVTASLDAKPAKGDWNGAGAHTNFSTRAMREGYDPIITACEALGQDDKPLEHVRQYGTGIEDRLTGAHETAPWDAYSYGASDRGASVRIPWQVEVEKKGYIEDRRPNANVDPYVVTRLMVDTCCTELARREQI
Consider B1, for which, in assay [1], the maximal calculated inhibition of ACC by GlnB at rising concentrations (from 0 μM, stable above 1.5 μM), without 2-OG is 50% and the maximal calculated inhibition of PCC by GlnB at rising concentrations (from 0 μM, stable above 1.5 μM), without 2-OG is 24.7%. In assay [2], this molecule returned an in vitro activity of ACC in the coupled enzyme assay with 5 μM GlnB, against 100% without GlnB of 54.2% and an in vitro activity of PCC in the coupled enzyme assay with 5 μM GlnB, against 100% without GlnB of 76.5%.

These data come from paper PMC8187598.
